In patent US20140147490A1, “HLA CLASS I A2 TUMOR ASSOCIATED ANTIGEN PEPTIDES AND VACCINE COMPOSITIONS” (priority 2012, published 2014):

T1: HLA-A*6802 (human, UniProt P30375 25-308 (Gorilla gorilla entry), limits assumed)
T1 construct: purified HLA molecule; b2m and chain limits not described
T1 MHC heavy: not shown


Legend:
[1] = test system: patients with recurrent or residual cervical carcinoma; details: cited from earlier work
HLA-A*6802 [2] = molecular target: T1, HLA-A*6802; assay: competitive inhibition assay, purified HLA
HLA-A*6802 [3] = molecular target: T1, HLA-A*6802; assay: competitive binding assay, purified HLA

| IC50 (HLA-A*6802 [2]) | IC50 (HLA-A*6802 [3]) | Molecule | responding patients ([1]; 95% interval 10-65%) | safety ([1]; immunocompromised cervical carcinoma patients) |
| --- | --- | --- | --- | --- |
|  |  | aKXVAAWTLKAAa-NH2 [PADRE] | 33% | favorable safety profile |
| 1140 nM |  | HLYQGCQVV (native HER2/neu peptide) [Her2/neu.48] |  |  |
| 2000 nM | 2000 nM | VVLGVVFGI (native HER2/neu peptide) [Her2/neu.665] |  |  |
